# Measurements taken from patent US20250109186A1.
# Where a chain is given by its changes, count along the chain named. Like-named read-outs stand apart in the source and are kept apart here.
# B1: Nanosota-3A, HA- and His-double-tagged (VHH)
# VHH: QVQLQESGGGLVQAGGSLRLSCAASGSIFSPNTMGWFRQALGKQREMVAVISSIASTQYANFVKGRFTITRDNTKNTVHLQMNSLIPEDTAVYYCYAVDKSQDYWGQGTQVTVSS
# B2: Nanosota-3A with C-terminal His tag (VHH)
# VHH: B1 VHH
# B3: Nanosota-3C with His6 tag and HA tag (VHH)
# VHH: B1 VHH with M47G, V50F, Q58S, A60W, N61L, F62P
# B4: Nanosota-3B, HA- and His-double-tagged (VHH)
# VHH: B1 VHH with V50F, Q58S
# Key:
# [1] = molecular target: SARS-CoV-2 Omicron BA.1 spike ectodomain (residues 14-1207) with C-terminal His tag (SARS-CoV-2 Omicron BA.1 subvariant)
# [2] = molecular target: SARS-CoV-2 Omicron BA.1 RBD (residues 316-526) with C-terminal His tag (SARS-CoV-2 Omicron BA.1 subvariant)
# [3] = molecular target: SARS-CoV-2 Omicron XBB.1.5 RBD (residues 315-525) with C-terminal His tag (SARS-CoV-2 Omicron XBB.1.5 subvariant); experiment: SPR (Biacore S200), CM5 chip, His-tagged proteins, 1:1 model
# [4] = molecular target: SARS-CoV-2 Omicron BA.1 RBD (residues 316-526) with C-terminal His tag (SARS-CoV-2 Omicron BA.1 subvariant); experiment: as above
# [5] = molecular target: SARS-CoV-2 Omicron XBB.1.5 spike ectodomain (residues 14-1207) with C-terminal His tag (SARS-CoV-2 Omicron XBB.1.5 subvariant)
binder,measurement,setting,value
B1,EC50 (read off the curve),[1],0.1 µg/mL
B2,Kd,[2],17.3 nM
B3,Kd,[3],2.04 nM
same,Kd,[4],27.3 nM
same,EC50 (read off the curve),[5],0.03 µg/mL
B4,EC50 (read off the curve),[1],0.02 µg/mL
